# B1: hepatocyte growth factor (protein, UniProt P17945 33-495; P17945 496-728, looked up)
# Hepatocyte growth factor …: QKKRRNTLHEFKKSAKTTLTKEDPLVKIKTKKVNSADECANRCIRNKGFPFTCKAFVFDKSRKRCYWYPFNSMSSGVKKGFGHEFDLYENKDYIRNCIIGKGGSYKGTVSITKSGIKCQPWNSMIPHEHSFLPSSYRGKDLQENYCRNPRGEEGGPWCFTSNPEVRYEVCDIPQCSEVECMTCNGESYRGPMDHTESGKTCQRWDQQTPHRHKFLPERYPDKGFDDNYCRNPDGKPRPWCYTLDPDTPWEYCAIKMCAHSAVNETDVPMETTECIKGQGEGYRGTTNTIWNGIPCQRWDSQYPHKHDITPENFKCKDLRENYCRNPDGAESPWCFTTDPNIRVGYCSQIPKCDVSSGQDCYRGNGKNYMGNLSKTRSGLTCSMWDKNMEDLHRHIFWEPDASKLTKNYCRNPDDDAHGPWCYTGNPLVPWDYCPISRCEGDTTPTIVNLDHPVISCAKTKQLR
# Hepatocyte growth factor beta …: VVNGIPTQTTVGWMVSLKYRNKHICGGSLIKESWVLTARQCFPARNKDLKDYEAWLGIHDVHERGEEKRKQILNISQLVYGPEGSDLVLLKLARPAILDNFVSTIDLPSYGCTIPEKTTCSIYGWGYTGLINADGLLRVAHLYIMGNEKCSQHHQGKVTLNESELCAGAEKIGSGPCEGDYGGPLICEQHKMRMVLGVIVPGRGCAIPNRPGIFVRVAYYAKWIHKVILTYKL
# Tested on: Akt
# Experiment: pS473 Akt phosphorylation by pancreatic growth factors
# Type: cell-based
# Details: rat pancreatic acini; data not shown
molecule,measurement,value
B1,pS473 Akt phosphorylation,stimulated pS473 Akt phosphorylation

# From article PMC3404614 (Biochimica et Biophysica Acta, 2012)
